Data: the nanobody polyreactivity screen of Harvey et al. (2022)

Assay: yeast display, Sf9 membrane polyspecificity reagent, FACS + sequencing; frameworks hold sequencing errors
How it was run: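 After 36–48 hours of galactose induction, yeast (Saccharomyces cerevisiae BJ5465) displaying a synthetic nanobody library were stained at 4 °C for 1 hour with 10% biotinylated, detergent-solubilized Sf9 membrane reagent. Streptavidin microbeads enriched the stained cells before FACS sorting into low and high (top ~1%) gates on anti-HA and streptavidin fluorescence. Each clone's polyreactivity label reflects its gate of origin.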

Row | Sequence | polyreactivity (PSR sort gate)
1 | QVQLVESGGGLVQAGGSLRLSCAASGFTFTLNAMGWYRQAPGKASEFVAAISTGGSTYYADSVKGRFTISRHNAKNTVYLQMNSRKPEDTAVYYCAAYRYSYHGSYQETYYYWGQGTQVTVSS | high polyreactivity
2 | QVQLVESGGGLVQAGGSLRLSCAASGFTFTLNAMGWYRQAPGKERELVAGISSGGSTNYADSVKGRFTISRDNAKNTVYLQMNSLKPEDTAVYYCAADRGYVWRYDYWGQGTQVTVSS | low polyreactivity
3 | QVQLVESGGGLVQAGGSLRLSCAASGFTFTNYAMGWYRQAPGKEREFVARITWSGGSTYYADSVKGRFTISRDNAKNTVYLQMNSLKPEDTAVYYCAARGWLVRSFIYDYWGQGTQVTVSS | high polyreactivity
4 | QVQLVESGGGLVQAGGSLRLSCAASGFTFTPNAMGWYRQAPGKERELVAAITSDGTTYYADSVKGRFTISRDNAKNTVYLQMNSLNPEDTAVYYCAADGGISAGANSGYDYWGQGTQVTVSS | high polyreactivity
5 | QVQLVESGGGLVQAGGSLRLSCAASGFTFTRNAMGWYRQAPGKEREFVAAITRSGGSTYYADSVKGRFTISRDNAKNTVYLQMNSLKPEDTAVYYCNKRSPSTIRFDYWGQGTQVTVSS | high polyreactivity
6 | QVQLVESGGGLVQAGGSLRLSCAASGFTFTRNAMGWYRQAPGKERELVAAISGSGGSTYYADSVKGRFTISRDNAKNTVYLQMNSLKPEDTAVYYCAAPLPWAYAYDYWGQGTQVTVSS | high polyreactivity
7 | QVQLVESGGGLVQAGGSLRLSCAASGFTFTRYAMGWYRQAPGKERELVAAMTTNSGSRTYYADSVKGRFTISRDNAKNTVYGQMNSLKPEDTAVYYCAADGPVVRGYYWGQGTQVTVSS | high polyreactivity
8 | QVQLVESGGGLVQAGGSLRLSCAASGFTFTRYTMGWYRQAPGKERELVAHITSGDSTNYADSVKGRFTISRDNAKNTVYLQKNSLKPEDTAVYYCNAEVKGFFYDYDYWGQGTQVTVSS | low polyreactivity
9 | QVQLVESGGGLVQAGGSLRLSCAASGFTFTRYTMGWYSQEPGKERELVARITRSGGSTYYADSVKGRFTISRDNAKNTVYLQMNSLKPEDTAVYYCAADTWSYTTRYYYWGQGTQVTVSS | high polyreactivity
10 | QVQLVESGGGLVQAGGSLRLSCAASGFTFTVYAMGWYRQAPGKERELVAAISGIGGSTYYADSVKGRFTISRDNAKNTVYLQMNSLKPEDTAVYYCNAVSGDSGDYWGQGTQVTVSS | low polyreactivity
11 | QVQLVESGGGLVQAGGSLRLSCAASGFTFTWYAMGWYRQAPGKQRELVASISRSGGSTYYAESVKGRFTISRDNAKNTVYLQMNSRKPEDTAVYYCAAVSRTRSYDYWGQGTQVTVSS | high polyreactivity
12 | QVQLVESGGGLVQAGGSLRLSCAASGFTFTYNTMGWYRQAPGKERELVAAISALGTSTYYADSVKGRFTISRDNAKNTVYLQMNSLKPEDTEVYYCAAAYRIGSGYWGQGTQVTVSS | high polyreactivity
13 | QVQLVESGGGLVQAGGSLRLSCAASGFTFTYNTMGWYRQAPGKEREMVAAISSTGGSTYYADSVKGRFTISRDNAKNTVYLQMNSLKPEDTAVYYCNACLPFSGRKRYGYWGQGTQVTVSS | high polyreactivity
14 | QVQLVESGGGLVQAGGSLRLSCAASGFTFTYYAMGWNRQEPGKERELVAAISGNGGSTYYADSVKGRFTISRDNAKNTVYLQMNRLKPEDTAVYYCNALPTSVGRWYRGDYWGQGTLVTVSS | high polyreactivity
15 | QVQLVESGGGLVQAGGSLRLSCAASGFTFTYYAMGWYRQAPGKERELVAAISASGDSTYYADSVKGRFTISRDNAKNTVYLQMNILKPEDTAVYYCAALYWYSRSSWDYDYWGQGTQVTVSS | high polyreactivity
16 | QVQLVESGGGLVQAGGSLRLSCAASGFTFTYYTMGWYRQATGKERELVAGISRSGGSTYYADSVKGRFTISRDYAKNTVYLQMNSLKPVDTAVYYCAAGSIQYRPTYTGDYWGQGTQVTVSS | high polyreactivity
17 | QVQLVESGGGLVQAGGSLRLSCAASGFTFVDYAMGWYRQAPGKERELVAAISSSGDSTYYADSVKGRFTISRYNAKNTVYLQMNSLKPEDNAVYYCAAEYDREEYSGYDYLGQGTQVTVSS | low polyreactivity
18 | QVQLVESGGGLVQAGGSLRLSCAASGFTFVFYAMGWYRQAPGKERELVAAISSGGGGTYYADSVKGRFTISRDNAKNTVYLQMNSLKPEDTAVYYCNTRYHKVYYGNDYWGQGTQVTVSS | high polyreactivity
19 | QVQLVESGGGLVQAGGSLRLSCAASGFTFVGNAMGWYRQAPGKERELVAAIRWSSGSTYYADSVKGRFTISRDNAKNTVYLQMNSLKPEDTAVYYCNAVYSVFYEYDYCGQGTQVTVSS | low polyreactivity
20 | QVQLVESGGGLVQAGGSLRLSCAASGFTFVGYAMGWYRQAPGKERELVASINYSGGSTYYADSVKGRFTISRDNAKNTVYVQMNSLNPEDTAVYYCAAGGYPWYLRRGGFACYDYWGQGTQVTVSS | low polyreactivity
21 | QVQLVESGGGLVQAGGSLRLSCAASGFTFVGYPLGWYRQATGKERELVAAISVSGGRTYYADSVKGRFTISRDNAMNTVYLQMKSLNPEDTAVYYCNAASPSYADFDYWGQGTQVTVSS | high polyreactivity
22 | QVQLVESGGGLVQAGGSLRLSCAASGFTFVINDLGWYRQAPGKERELVADITSGGDTYYADSVKGRFTISRDNAKNTVYLQMNSLKPEDTAFYYCAADIYPDWIYLLYGYWGQGTQVTVSS | low polyreactivity

Row | Sequence | polyreactivity (PSR sort gate)
23 | QVQLVESGGGLVQAGGSLRLSCAASGFTFVINDMGWNRQAPGKERELVADITSGGDTYYADSVKGRFTISRDNAKNTVDLQMNSLKPEDTAVYYCAADIYPDWIYLLYGYWGQGTQVTVSS | low polyreactivity
24 | QVQLVESGGGLVQAGGSLRLSCAASGFTFVKNAMGWYRQAPGKERELVAALSSRGGSTYYADSVKGRFTISRDNAKNTVYLQMNSLKPEDTAVYYCATERERTMGYWGQGTQVTVSS | high polyreactivity
25 | QVQLVESGGGLVQAGGSLRLSCAASGFTFVPYAMGWYRQAPGKERELVAAISGSGGSTYYADSVKGRFTISRDNAKNTVYLQMNSLKPEDTAVYYCNADRRWAYYWGQGTQVTVSS | high polyreactivity
26 | QVQLVESGGGLVQAGGSLRLSCAASGFTFVRYAMGWYRQAPGKERELVAAISSGGRTYYADSVKGRFTISRDNAKNTVYLQMNSLKPEDTAVYYCAADTKFGYGYWGQGTQVTVSS | high polyreactivity
27 | QVQLVESGGGLVQAGGSLRLSCAASGFTFVRYAMGWYRQAPGKERELVAAISSGGRTYYADSVKGRFTISRDNAKNTVYLQMNSLKPEDTAVYYCAAEKVGTRPSRDYDYWGQGTQVTVSS | high polyreactivity
28 | QVQLVESGGGLVQAGGSLRLSCAASGFTFVRYAMGWYRQAPGKERELVAAISSSGSSTYYADSVKGRFTISRDHEKNTVYLQMNSLKPEDTAVYYCNARAGRGEDYWGQGTQVTVSS | low polyreactivity
29 | QVQLVESGGGLVQAGGSLRLSCAASGFTFVRYAMGWYRQAPGKESEFVASISARGGNTFYADSVKGRFTISRDNAKNTVYLQMNSLKPEDTAVYYCAKPGPYGTGYGYWGQGTQVTVSS | high polyreactivity
30 | QVQLVESGGGLVQAGGSLRLSCAASGFTFVRYVMGWYRQAPGKERELVAAISRSGGSTHYADSVKGRFTISRDNAKNTVYLQMNSLKPEDTAVYYCAAASPRWPGQGDYWGQGTQVTVSS | high polyreactivity
31 | QVQLVESGGGLVQAGGSLRLSCAASGFTFVRYVMGWYRQAPGKERELVAAISRSGGSTHYADSVKGRFTISRDNAKNTVYLQMNSLKPEDTAVYYCADASPRWPGQGDYWGQGTQVTVSS | high polyreactivity
32 | QVQLVESGGGLVQAGGSLRLSCAASGFTFVSNAMGWYRQAPGKERELVAVISSGGSTTYADSVKGRFTISRDNAKNTVYLQMNSLKPEDTAVYYCATTNYQDSYEGGDYWGQGTQVTVSS | low polyreactivity
33 | QVQLVESGGGLVQAGGSLRLSCAASGFTFVSYAMGWYRQAPGKERELVASITWTGGSTYYADSVKGRFTISRDNAKNTVYLQMNSLKPEDTAVYYDYWGQGTQVTVSS | low polyreactivity
34 | QVQLVESGGGLVQAGGSLRLSCAASGFTFVTNAMGWYRQAPGKERELVAAISWNDDDTYYADSVKGRFTISRDNAKNTVYLQMNSLKPEDTAVYYCAKDEYRVKWWGWDIYDYWGQGTQVTVSS | low polyreactivity
35 | QVQLVESGGGLVQAGGSLRLSCAASGFTFVWYTMGWYRQAPGKERELVAAISSSGGTTYYADSVKGRFTISRDNAKNTVYLQMNSLKPEDTAVYYCNVAYFYTTPTRGYNYWGQGTQVTVSS | high polyreactivity
36 | QVQLVESGGGLVQAGGSLRLSCAASGFTFVYNAMGWYRPAPGKERELVAAITSGGNTYYADSVKGRFTISRDNAKNTVYLQMNSLKPEDTAVYYCAKRGYGRYYAYDYWGQGTQVTVSS | high polyreactivity
37 | QVQLVESGGGLVQAGGSLRLSCAASGFTFVYSVMGWYRQAPGKERELVAAINAGGGSTYYADSVKGRFTISRDNAKNTVYLQMNSLKPEDTAVYYCNARVRVRLGRNWSSYYYWGQGTQVTVSS | high polyreactivity
38 | QVQLVESGGGLVQAGGSLRLSCAASGFTFVYYAMGWYRQAPGKEREFVATISSRGDSTYYADSVKGRFTISRDNAKNTVYLQMNSLKPEDTAVYYCAADYDRKTRYGYLGQGTQVTVSS | low polyreactivity
39 | QVQLVESGGGLVQAGGSLRLSCAASGFTFVYYAMGWYRQAPGKERELVAAISRGGSTYYADSVKGRFTISRDNAQNPVYLQMNSLKPEDTAVYYCNAKKSGHYVSYPAYDYWGQGTQVTVSS | low polyreactivity
40 | QVQLVESGGGLVQAGGSLRLSCAASGFTFVYYAMGWYRQAPGKERELVAAISRSGGSTYYADSVKGRFTISRDNAKNTVNLQMNSLKPEDTAVYYCAARKTYGSRLSYEYWGQGTQVTVSS | high polyreactivity
41 | QVQLVESGGGLVQAGGSLRLSCAASGFTFVYYTMGWYRPAPRKVRELVAAISSSGGRTSYADSVKGLFTISRDNAKNTVYLQMNSLKPEDTAVYYCAARAYPTWRTYYYWGQGTQVTVSS | high polyreactivity
42 | QVQLVESGGGLVQAGGSLRLSCAASGFTFWANAMGWYRQAPGKERELVAAISWSGGSTTYADSVKGRFTISRDNAKNTVYLQMNSLKPEETAVYYCATDYGHYVTYRLSDYWGQGTQVTVSS | low polyreactivity
43 | QVQLVESGGGLVQAGGSLRLSCAASGFTFWFYAMGWYRQAPGKEREFVAGISRRGGSTYYADSVKGRFTISRDNAKNTVYLQMNSLKPEDTAVYYCASRQFHNGVTTAGYGYWGQGTQVTVSS | high polyreactivity
